Source: patent US20190119357A1, “MESSENGER RIBONUCLEIC ACIDS FOR THE PRODUCTION OF INTRACELLULAR BINDING POLYPEPTIDES AND METHODS OF USE THEREOF” (ModernaTX, Inc., priority 2015, published 2019)
“Also recorded” adds a separate entry of the source.

B1: Bcl-w (C29S/A128E) BH3 Trap.n9V5: Bcl-2-like trap mRNA, SEQ ID NO: 81, V5 tag (nucleic acid)
chain: ATGATTCCCAATCCGCTCCTCGGGCTTGACGCTACACCAGCCAGTGCACCAGACACGAGGGCGCTGGTTGCCGATTTCGTGGGATACAAGCTCAGGCAAAAAGGGTACGTAAGCGGTGCCGGGCCCGGGGAGGGACCGGCTGCCGATCCACTCCACCAGGCTATGAGGGCAGCTGGGGACGAATTCGAAACACGCTTTCGGCGGACTTTCTCCGACCTTGCCGCACAGCTACACGTCACTCCCGGGAGCGCTCAGCAGCGCTTCACGCAGGTCTCAGACGAATTGTTCCAAGGCGGCCCTAATTGGGGAAGATTGGTGGCCTTCTTCGTGTTTGGGGCAGCACTGTGCGCTGAGTCCGTGAACAAAGAAATGGAACCCCTCGTTGGCCAAGTCCAAGAATGGATGGTGGAATATCTGGAAACACAGTTAGCGGATTGGATTCACTCATCTGGGGGCTGGGCTGAGTTTACAGCACTGTACGGGGACGGTGCCCTAGAGGAGGCCCGAAGACTGAGGGAAGGCAACTGGGCCAGCGTTCGCACGGTGTTGACCGGCGCGGTTGCTTTGGGCGCTTTGGTTACCGTCGGCGCATTCTTCGCCAGTAAA
modifications: V5 tag; Synthetic Bcl-w (C29S/A128E)BH3 mRNA sequence with V5 epitope tag
B2: SQT-Bad-BH3: mRNA (SEQ ID NO: 51, FLAG) encoding SQT scaffold with Bad BH3 domain in N-terminus (nucleic acid)
chain: ATGATCCCAAGAAACCTGTGGGCTGCACAACGCTACGGAAGAGAACTGCGCCGGATGAGCGACGAATTTGTGGACTCGTTCAAGAAGGGGGGACTCTCAGAAGCGAAGCCTGCCACCCCCGAAATCCAGGAAATCGTCGACAAGGTCAAGCCGCAGCTTGAGGAAAAGACCAACGAGACTTACGGAAAACTGGAGGCCGTGCAGTATAAGACCCAAGTGTTGGCCTCCACCAACTACTACATTAAGGTCCGCGCCGGCGATAACAAGTACATGCACCTGAAGGTGTTCAATGGTCCTCCGGGACAGAACGCGGACAGGGTGCTGACTGGCTACCAAGTGGACAAGAACAAGGACGACGAGCTGACGGGCTTCGACTACAAGGATGATGATGACAAA
modifications: FLAG tag; Synthetic SQT-BAD-BH3 mRNA sequence with FLAG epitope tag
B3: Bcl-xL del.C24 BH3 Trap.cFLAG: Bcl-2-like trap mRNA, SEQ ID NO: 83, FLAG tag (nucleic acid)
chain: ATGTCCCAGAGCAACAGGGAACTCGTAGTCGATTTCTTGTCCTACAAGCTCAGTCAGAAGGGCTACTCTTGGTCCCAATTTTCCGACGTGGAAGAAAATCGGACAGAAGCCCCTGAGGGAACCGAGAGTGAGATGGAGACCCCGTCTGCAATCAACGGGAACCCTTCTTGGCACTTGGCCGACAGTCCCGCTGTGAATGGCGCCACAGGTCACAGTTCATCACTCGACGCTAGAGAAGTTATACCCATGGCAGCAGTCAAGCAAGCTCTGCGGGAGGCCGGCGACGAGTTCGAACTTCGGTACCGCCGAGCTTTTTCTGACCTGACTAGTCAGCTGCATATTACTCCGGGCACTGCGTACCAGTCGTTCGAACAGGTGGTTAATGAACTATTTCGAGACGGCGTGAATTGGGGCAGAATTGTAGCCTTTTTCTCCTTTGGAGGTGCACTGTGTGTCGAGAGCGTCGATAAGGAAATGCAGGTGTTGGTGAGCCGTATCGCGGCCTGGATGGCCACGTATCTGAACGACCATTTGGAACCATGGATCCAAGAAAACGGGGGTTGGGATACTTTCGTGGAGTTATATGGCAACAATGCTGCAGCGGAAAGTCGCAAGGGCCAGGAACGAGACTATAAAGATGACGACGATAAA
modifications: FLAG tag; Synthetic Bcl-xL del.C24 mRNA sequence with FLAG epitope tag
B4: SQT-Noxa-BH3: mRNA (SEQ ID NO: 52, FLAG) encoding SQT scaffold with Noxa BH3 domain in N-terminus (nucleic acid)
chain: ATGATCCCAAGACCCGCAGAGCTCGAAGTGGAATGCGCTACCCAACTTAGACGGTTCGGAGACAAGCTGAACTTTCGGCAGAAGCTCCTGGGACTCTCAGAAGCGAAGCCTGCCACCCCCGAAATCCAGGAAATCGTCGACAAGGTCAAGCCGCAGCTTGAGGAAAAGACCAACGAGACTTACGGAAAACTGGAGGCCGTGCAGTATAAGACCCAAGTGTTGGCCTCCACCAACTACTACATTAAGGTCCGCGCCGGCGATAACAAGTACATGCACCTGAAGGTGTTCAATGGTCCTCCGGGACAGAACGCGGACAGGGTGCTGACTGGCTACCAAGTGGACAAGAACAAGGACGACGAGCTGACGGGCTTCGACTACAAGGATGATGATGACAAA
modifications: FLAG tag; Synthetic SQT-NoxA-BH3 mRNA sequence with FLAG epitope tag

Assays:
Hep3B cells [1] = experiment: Co-transfection of SQT-Bim-BH3 mRNA with Bcl-2-like Trap mRNAs, % phase confluence; assay type: cell-based
Source text: C32, Bcl-xL del.C24, Mcl-1 del.N/C(2010), and Bcl-xL (D61A) del.C24.

BCL-2 = target: T1, BCL-2 (Homo sapiens, UniProt P10415); experiment: Co-immunoprecipitation after mRNA transfection; assay type: binding; conditions: within two hours after mRNA transfection
T1 construct: endogenous in cells; host or cells: cells transfected with SQT-BH3 mRNA (HeLa by context)

BCL-XL = target: T2, BCL-XL (Homo sapiens, UniProt Q07817); experiment: Co-immunoprecipitation after mRNA transfection; assay type: binding; conditions: within two hours after mRNA transfection
T2 construct: endogenous in cells; host or cells: cells transfected with SQT-BH3 mRNA (HeLa by context)

HeLa cells [2] = experiment: PARP-1 cleavage by SDS-PAGE and Western blotting after transfection of mRNAs encoding SQT-BH3 constructs; assay type: cell-based; conditions: 4 hours after transfection
Source text: The cleavage of PARP-1 was detected by the appearance of a faster-migrating band and concomitant loss of the full-length band by SDS-PAGE and Western blotting. Western blotting with anti-actin antibodies served as a loading control.

Hep3B cells [3] = experiment: Cell death by YOYO-3 with MC3-formulated LNPs; assay type: cell-based; conditions: relatively high concentration
Description: The efficacy of mRNAs encoding SQT-BH3 constructs in inducing cell death was tested both in hepatocellular carcinoma cell lines as well as in primary hepatocytes using lipid nanoparticle (LNP)-formulated constructs. Hep3B cells were treated with varying doses (0.78 ng to 50 ng) of MC3-formulated LNPs in the presence of YOYO-3 (Life Technologies), a DNA dye that is taken up preferentially by dead cells that is used to measure the extent of cell death. MC3 lipid nanoparticles included MC3 50%, DSPC 10%, Cholesterol 38.5%, PEG-DMG 1.5%, N:P ˜5.5.

Hep3B cells [4] = experiment: SQT-BH3 in combination with siMCL1 or sorafenib, YOYO-3; assay type: cell-based; conditions: 10 uM sorafenib tosylate, 24 hours after treatment
HeLa cells [5] = experiment: Long-term live cell imaging of GFP-positive cells after mRNA transfection; assay type: cell-based
[6] = tested on: primary mouse hepatocytes; experiment: Sorafenib combination in primary mouse hepatocytes; assay type: cell-based; conditions: SQT-PUMA-BH3 205 pM or 1100 pM, SQT-Bad-BH3 549 pM or 1100 pM, sorafenib 0-10 uM
Description: Similar combination experiments were performed with primary mouse hepatocytes, treated with SQT-PUMA-BH3 (205 pM or 1100 pM) or SQT-Bad-BH3 (549 pM or 1100 pM) in combination with sorafenib (0-10 μM). […] Thus, normal primary liver cells are spared by the combination treatment, indicating the combination treatment can selectively kill liver cancer cells over normal liver cells.

primary hepatocytes [7] = experiment: Apoptosis induction by MC3 LNP-formulated mRNAs in primary hepatocytes cultured in vitro; assay type: cell-based; conditions: LNPs
primary hepatocytes [8] = conditions: 10uM sorafenib tosylate, 24 hours after treatment
Description: Controls were an empty SQT construct (“SQT-dummy”), a non-targeting siRNA and PBS. For treatment of Hep3B cells, 20,000 Hep3B cells/well per plated in 96-well plates. At Day 1, some wells were transfected with siMCL1 (Dharmacon, ON-TARGETplus Human MCL1 (4170) siRNA-SMARTpool, # L-004501-00-0005) or non-targeting siRNA (ON-TARGETplus Non-targeting Control Pool, # D-001810-10-05). […] 24 hours after treatment, YOYO®-3 iodide (Life Technologies) viability dye was added to each well and cell death was measured on an IncuCyte ZOOM® using YOYO-3 fluorescence as a readout (=“Apoptosis”). For treatment of primary hepatocytes, 18,000 mouse hepatocytes (Gibco) were seeded in each well of a 96-well plate. At Day 1, some wells were transfected with siMCL1 (Dharmacon, SMARTpool: ON-TARGETplus Mc11 siRNA, # L-062229-00-0005) or non-targeting siRNA (ON-TARGETplus Non-targeting Control Pool, # D-001810-10-05). […] 24 hours after treatment, Caspase 3/7 reagent (EssenBio) apoptosis dye was added to each well and cell death was measured on an IncuCyte ZOOM® using the caspase 3/7 reagent fluorescence as a readout (=“Apoptosis”).

Hep3B cells [9] = experiment: Sorafenib combination, YOYO-3 apoptosis on IncuCyte ZOOM; assay type: cell-based
Description: To determine the effect of SQT-BH3 constructs in combination with the protein tyrosine kinase inhibitor Sorafenib on liver cells, 20,000 Hep3B cells/well in a 96 well plate were treated with increasing amounts of sorafenib tosylate (Selleck Chemicals) and transfected with LNPs containing SQT-PUMA-BH3 (68 pM) or SQT-Bad-BH3 (550pM).

MCL-1 = target: T3, MCL-1 (Homo sapiens, UniProt Q07820); experiment: Co-immunoprecipitation in lysates of transfected HeLa cells; assay type: binding; conditions: lysates of HeLa cells transfected with mRNAs
T3 construct: performed in lysates of HeLa cells transfected with mRNAs encoding SQT-BH3 constructs; endogenous in cells; host or cells: HeLa
T3 sequence (Q07820 whole entry): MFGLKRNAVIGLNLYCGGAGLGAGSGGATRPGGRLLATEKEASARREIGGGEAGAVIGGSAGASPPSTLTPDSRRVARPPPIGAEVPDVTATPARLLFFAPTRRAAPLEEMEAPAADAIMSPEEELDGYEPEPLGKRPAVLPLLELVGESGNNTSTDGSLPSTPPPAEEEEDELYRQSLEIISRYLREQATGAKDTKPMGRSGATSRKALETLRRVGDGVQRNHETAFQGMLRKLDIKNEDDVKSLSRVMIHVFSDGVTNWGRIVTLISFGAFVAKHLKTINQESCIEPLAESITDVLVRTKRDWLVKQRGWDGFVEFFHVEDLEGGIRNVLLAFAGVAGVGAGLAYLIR

T2 sequence (Q07817 whole entry): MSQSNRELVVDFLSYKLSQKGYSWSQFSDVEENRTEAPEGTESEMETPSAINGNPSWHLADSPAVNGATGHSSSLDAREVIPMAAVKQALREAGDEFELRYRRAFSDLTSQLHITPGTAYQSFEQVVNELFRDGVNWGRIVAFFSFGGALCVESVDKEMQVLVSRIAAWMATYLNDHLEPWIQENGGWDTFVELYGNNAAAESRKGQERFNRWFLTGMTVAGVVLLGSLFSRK
T1 sequence (P10415 whole entry): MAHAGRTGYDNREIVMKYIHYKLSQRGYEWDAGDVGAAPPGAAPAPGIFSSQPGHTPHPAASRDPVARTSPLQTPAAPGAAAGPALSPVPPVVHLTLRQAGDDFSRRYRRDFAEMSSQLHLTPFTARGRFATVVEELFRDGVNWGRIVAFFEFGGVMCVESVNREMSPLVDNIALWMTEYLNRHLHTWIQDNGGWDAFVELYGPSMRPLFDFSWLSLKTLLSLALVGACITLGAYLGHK

| Molecule | fate of SQT-BimBH3-transfected cells co-transfected with Trap construct (Hep3B cells [1]) | PARP-1 cleavage, extent (HeLa cells [2]) | apoptosis and cell death (YOYO-3) (Hep3B cells [3]) | cell-killing activity (HeLa cells [5]) | PARP-1 cleavage (primary hepatocytes [7]) | further results |
| --- | --- | --- | --- | --- | --- | --- |
| B1 | remained alive |  |  |  |  | inhibition of SQT-BH3-induced cell death (% phase confluence) (Hep3B cells [1]; co-transfected with SQT-Bim-BH3 mRNA, ratio Trap construct:SQT-BH3 construct 1:2, 24 hour period): most potent inhibitor of SQT-BH3-induced cell death; also recorded: to a substantially greater degree than Bcl-xL (D61A) del.C24 BH3 Trap.cFLAG |
| B2 |  | also induced PARP-1 cleavage, although to a lesser extent than SQT-PUMA-BH3 or SQT-Bim-BH3 | behaved similar to the empty MC3 LNP control and mRNAs encoding SQT | did not show cell-killing activity | did not | interaction with BCL-2 by co-immunoprecipitation (BCL-2): also able to co-immunoprecipitate BCL-XL and BCL-2, although to a lesser extent than SQT-PUMA-BH3 and SQT-Bim-BH3; interaction with BCL-XL by co-immunoprecipitation (BCL-XL): also able to co-immunoprecipitate BCL-XL and BCL-2, although to a lesser extent than SQT-PUMA-BH3 and SQT-Bim-BH3; apoptosis (YOYO-3) in combination with either siMCL1 or sorafenib (Hep3B cells [4]): led to a marked increase in apoptosis as compared to treatment with the SQT-BH3 construct in combination with non-targeting siRNA or PBS; also recorded: synergistic pro-apoptotic effect; apoptosis in combination with sorafenib [6]: neither SQT-BH3 construct, in combination with sorafenib, caused apoptosis; apoptosis (caspase 3/7) in combination with siMCL1, sorafenib or controls (primary hepatocytes [8]): did not lead to increased apoptosis as compared to treatment with the control SQT-dummy construct; nature of combination effect with sorafenib (Hep3B cells [9]; SQT-PUMA-BH3 68 pM or SQT-Bad-BH3 550pM): synergistic effect; apoptosis (YOYO-3), combination with sorafenib vs sorafenib alone (Hep3B cells [9]; SQT-PUMA-BH3 68 pM or SQT-Bad-BH3 550pM in LNPs, increasing sorafenib tosylate): increased apoptosis of the liver cells as compared to treatment with sorafenib alone |
| B3 | exhibited substantial apoptosis and cell death |  |  |  |  |  |
| B4 |  | also induced PARP-1 cleavage, although to a lesser extent than SQT-PUMA-BH3 or SQT-Bim-BH3 | behaved similar to the empty MC3 LNP control and mRNAs encoding SQT | did not show cell-killing activity | did not | co-immunoprecipitation of MCL-1 (MCL-1): able to co-immunoprecipitate |
